Laboratory results published in the DeepSol protein solubility set.

Assay: soluble on expression in E. coli; label from the status in PepcDB or PDB records

Row | Sequence | soluble on expression in E. coli
1 | MAVKVAINGFGRIGRLAFRRIQEVEGLEVVAVNDLTDDDMLAHLLKYDTMQGRFTGEVEVVDGGFRVNGKEVKSFSEPDASKLPWKDLNIDVVLECTGFYTDKDKAQAHIEAGAKKVLISAPATGDLKTIVFNTNHQELDGSETVVSGASSTTNSLAPVAKVLNDDFGLVEGLMTTIHAYTGDQNTQDAPHRKGDKRRARAAAENIIPNSTGAAKAIGKVIPEIDGKLDGGAQRVPVATGSLTELTVVLEKQDVTVEQVNEAMKNASNESFGYTEDEIVSSDVVGMTYGSLFDATQTRVMSVGDRQLVKVAAWYDNEMSYTAQLVRTLAYLAELSK | soluble
2 | MSLEKKTLLTHCPDAPGLISKITNICYKHQLNIIHNNEFVDNASGHFFMRTELEGYFNDATLLADLDHALPQGTRRKLISSSRKRIVILVTKEAHCLGDILMKNYDGSLDVDIAAVVGNYDTLQRLTERFDIPYHCVSHEGLSREAHEQALLDVIDQYQPDYLVLAKYMRVLTPAFVERFHHKIINIHHSFLPAFIGAKPYQQAYERGVKIIGATAHFVTNDLDEGPIIKQDVIPVDHTFSAQDMAQAGRDVEKNVLSKALNKVLNDHVFVYGNKTVILERHHHHHH | soluble
3 | STSCVAEEPIKKIAIFGGTHGNELTGVFLVTHWLKNGAEVHRAGLEVKPFITNPRAVEKCTRYIDCDLNRVFDLENLSKEMSEDLPYEVRRAQEINHLFGPKNSDDAYDVVFDLHNTTSNMGCTLILGDSGNDFLIQMFHYIKTCMAPLPCSVYLIEHPSLKYATTRSIAKYPVGIEVGPQPHGVLRADILDQMRRMLKHALDFIQRFNEGKEFPPCAIDVYKIMEKVDYPRNESGDVAAVIHPNLQDQDWKPLHPGDPVFVSLDGKVIPLGGDCTVYPVFVNEAAYYEKKEAFAKTTKLTLNAKSIRSTLH | soluble
4 | MSLLDFEKPLFEIRNKIESLKESQDKNDVDLQEEIDMLEASLERETKKIYTNLKPWDRVQIARLQERPTTLDYIPYIFDSFMELHGDRNFRDDPAMIGGIGFLNGRAVTVIGQQRGKDTKDNIYRNFGMAHPEGYRKALRLMKQAEKFNRPIFTFIDTKGAYPGKAAEERGQSESIATNLIEMASLKVPVIAIVIGEGGSGGALGIGIANKVLMLENSTYSVISPEGAAALLWKDSNLAKIAAETMKITAHDIKQLGIIDDVISEPLGGAHKDVEQQALAIKSAFVAQLDSLESLSRDEIANDRFEKFRNIGSYIEEGHHHHHH | not soluble
5 | MGSDKIHHHHHHMQTHQELYLPRMGCGTWAWGNQLLWGYNESMDEQLQAVFNLCVSNGVTLFDTGDSYGTGRLNGRSELLLGQFAQEYQGVNQENICIATKLAAYPWRWTRQSMINACKSSAQRLGRNVDLVQMHWSTANYAPWQESGLLDGLADLYEQGLVKGVGLSNYGTKRLQRVHQKFAERGVPIKTLQVQYSLLSTYPVTELGLKDVCDQLGIKLIAYSPLALGILTGKYSEKGPFPRGVRGLLFRQLLPGVRSLLQCLQDVAQSRNKTMSQVALNWCIAKGTIPIPGAKSVKQAQENIGALGWQLDSGEIAELDKAAASSDKKMVQNIFQTK | not soluble
6 | MSLTKDLLSELIQKHRSFNLSYSAYKQLYEGDHAILQQKQKEQYKPDNRLVVNFAKYIVDTFNGYFIGVPVQTSHENKQVSNYLELLDGYNDQDDNNAELSKICSIYGHGYELVFNDENAEVGITYLTPLEGFIVYDDSIRQKPLFAVRYFYNKDGVLEGSYSDASKITYFKDGEKDLEIGESDPHPFDGVPMIEYVENEERQSLLASVVTLINAFNKAISEKANDVEYFADAYLKILGAELDDETLKSLRDTRIINLKDTDAQQLTVEFLQKPDADATQEHLLDRLENLIFRTAMVANISDESFGTASGIALRYRLQAMDNLAKTKERKFMSGMNRRYKLIASYPTSKIGPKDWIGIKYKFTRNLPANLLEESQIAGNLAGIVSEETQVGVLSIVENPQKEIEKKNSDRPTLISRKAGGLNGQDTTTVLEGHHHHHH | not soluble
7 | IKKPMSASALFVQDHRPQFLIENPKTSLEDATLQIEELWKTLSEEEKLKYEEKATKDLERYNSQMKRAIEQESQMSLKD | soluble
